From PMC7204071, “The model cyanobacteria Anabaena sp. PCC 7120 possess an intact but partially degenerated gene cluster encoding gas vesicles” (BMC Microbiology, 2020) come the findings set out here.

Substrate in this series: Nc1ncnc2c1ncn2[C@@H]1O[C@H](COP(=O)(O)OP(=O)(O)OP(=O)(O)O)[C@@H](O)[C@H]1O
In words: ATP/NADH coupled assay (pyruvate kinase / lactate dehydrogenase), A340, Hanes-Woolf plot. Type of series: biochemical, Nostoc sp. PCC 7120 = FACHB-418. The following applies: 50 mM Tris-HCl pH 8.0, 20 mM KCl, 5 mM MgCl2, 25 °C, 50 μg GvpN in assay, methods state NADH (40 to 200 μM), not ATP, was varied.

B1: GvpN (Nostoc sp. PCC 7120 = FACHB-418) (protein)
chain: MTLTANNKKRAVLRVRPGQFVVTPAIEQVAIRALRYLTSGFAIHLRGPAGTGKTTLAMHLANCLDRPIMLIFGDDEFKSSDLIGSESGYTHKKLLDNYIHSVLKVEDEFKQNWVDSRLTLACREGFTLVYDEFNRSRPEVNNVLLSALEEKILTLPPSSNQPEYLHVNPQFRAIFTSNPEEYCGVHSTQDALMDRLVTINMPEPDELTQTEILAQKTALNRADALLIVRLVKAFRSRTGGEKTSGLRSCLMIAKVCAEHNILVSPQSSDFREICADVLFNRTNWSASEAATIFLELLNHLDLQQIEEFKNSIIPEDTDAIAEGGFPTIIDSHFGTLDSEVLEQPGVEDSIPFEQEIYLYLQQYKSAALALVQQEFELSRTVATNALNSLEQKGLVSKNNHVYTIEEPNQS
notes: recombinant, C-terminal 6xHis tag (modified pET-29a, same manner as GvpF), E. coli BL21(DE3), Ni-NTA and Superdex 200; N-terminal AAA domain
Usually Km stands for the substrate concentration at which the rate is half of its maximum. Usually kcat stands for the maximal rate divided by the concentration of active sites. As for B1, the Michaelis-Menten constant (Km) was 3.9 ± 1.5 µM and the catalytic constant (kcat) is 35 ± 2 s⁻¹.
